Measurements reported in PMC5739537, “Computationally-driven identification of antibody epitopes” (eLife, 2017).

Biological target: T1, B7H6 (wild type) (human, UniProt Q68D85)
T1 construct: B7H6, human tumor antigen; complete extracellular and transmembrane domains; The results call it the full-length transmembrane protein, the methods complete extracellular and transmembrane domains; also called WT B7H6; WT Ag; source: HEK-293F, transfected (pPPI4 surface expression vector, polyethyleneimine), on the cell surface
T1 sequence (Q68D85 25-262): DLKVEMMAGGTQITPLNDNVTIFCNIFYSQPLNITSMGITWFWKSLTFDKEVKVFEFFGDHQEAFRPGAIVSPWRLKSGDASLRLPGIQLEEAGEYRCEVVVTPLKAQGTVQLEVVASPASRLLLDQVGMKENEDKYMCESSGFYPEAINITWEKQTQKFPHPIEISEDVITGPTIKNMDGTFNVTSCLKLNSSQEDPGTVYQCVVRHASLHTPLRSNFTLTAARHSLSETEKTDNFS
Assay: flow cytometry on cells; HEK-293F cells expressing WT B7H6 or designed variants, 2.5x10^5 cells/well; 100 nM TZ47, PB11 scFv-Fc or NKp30-Ig for 1 hr in PBS + 0.1% BSA; Anti-Mouse-AlexaFluor488 or Anti-Hu-AlexaFluor647 secondary Abs; integrated MFI normalised to NKp30-Ig binding and to WT B7H6; triplicate wells
Details: one partner purified

| binding result | Binder |
| --- | --- |
| binds | TZ47 (antibody, V domains shown, Murine antibody; detected with an anti-mouse AlexaFluor488 secondary antibody) VH: QVQLQQSGAELMKPGASVKLSCKATGYTFTGYWIEWIKQRPGHGLEWIGEILPGTGSTNYNEKFKGKATFTADTSSNTAYMQLSSLTTEDSAIYYCAIPGPMDYWGQGTSVTVSS VL: DIKMTQSPSSMYASLGERVTITCKASQDINSYLSWFQQKPGKSPKTLIYRANRLVDGVPSRFSGSGSGQDYSLTISSLEYEDMGIYYCLQYDEFPYTFGGGTKLEIK |
| binds | PB11 scFv-Fc (scFv, V domains shown, Used as scFv-Fc in the staining) VH: QVQLVQSGAEVKKPGASVKISCKASGYTLGTYTLHWMRQAPGQRIEWMGWINPGNGYTKYSQRFQGRVTINRDTSATTTYMELSSLRSEDTAVYFCATDRAPVRRAFDIWGQGTMVTVSS VL: QSVLTQPASVSGSPGQSVTISCTGTSSDIGSYKFVSWYQHHPGKAPKLMIYDVTQRPSGVPYRFSGSKSGNTASLTISGLQAEDEADYYCCSYAGDYTYALFGGGTQLTVL |
